According to publication PMC12309361:
Like-named read-outs stand apart in the source and are kept apart here.

Key:
[1] = molecular target: WT PolC CBM peptide (QLSLF) with flanking amino acids from PolC, fluorescein-labelled (B. subtilis); assay: fluorescence polarisation; direct binding: B. subtilis DnaN in 3-fold serial dilution from 50 μM, 20 nM fluorescein-labelled peptide; 20 mM Tris-HCl pH 7.5, 100 mM NaCl, 5 mM BME, 10% glycerol, 0.1% pluronic acid F-68; fit to a 1:1 binding model
[2] = molecular target: PolC CBM sequence (QLSLF) peptide with the flanking amino acids from DnaE, fluorescein-labelled (B. subtilis); assay: as above
[3] = molecular target: WT PolC CBM peptide (QLSLF) with flanking amino acids from PolC, fluorescein-labelled (B. subtilis); assay: as above; remark: listed apart in the source
[4] = molecular target: Pol III alpha CBM (Escherichia coli); details: cited from earlier work

| Kd [1] [µM] | Kd [2] [µM] | Kd [3] [µM] | Substance | Kd [4] [µM] |
| --- | --- | --- | --- | --- |
| 3.9 | 7.2 | 3.8 | B. subtilis DnaN (sliding clamp), N-terminally His6-tagged (from UniProt P05649 1-378) (natural protein) |  |
|  |  |  | DnaN clamp (from UniProt P0A988) | 0.8 |
